Laboratory results reported in US20240166727A1 (CEINGE BIOTECNOLOGIE AVANZATE SCARL, published 2024).

Biological target: Spike glycoprotein on SARS-COV-2 viral particles (Italian Variant, Genbank MT682732.1, GISAID EPI_ISL_477204) (SARS-COV-2, UniProt P0DTC2 14-1273)
Assay: cell-based or functional assay

B1: D3 mAb (fully human IgG4 anti-Spike RBD antibody) (antibody, V domains shown)
VH: QVQLVQSGAEVKKPGATVKISCKVSGYTFTDYYMHWVQQAPGKGLEWMGLVDPEDGETIYAEKFQGRVTITADTSTDTAYMELSSLRSEDTAVYYCARGAKATLGLWGQGTLVTVSR
VL: ELTQDPAVSVALGQTVRITCQGDSLRSYYASWYQQKPGQAPVLVIYGKNNRPSGIPDRFSGSSSGNTASLTITGAQAEDEADYYCNSRDSSGNHVVFGGGTKLTVL
IC50 of inhibition of viral infectivity (VERO E6 cells, 0.5 MOI): 15 µg/mL
